ChEMBL document CHEMBL1157347, “Chemoenzymatic syntheses of prenylated aromatic small molecules using Streptomyces prenyltransferases with relaxed substrate specificities” (Bioorg Med Chem, 2008)

Assays:
[1] = test system: NphB prenyltransferase (Streptomyces sp. CL190); assay: Ratio of Kcat to Km of Streptomyces sp. CL190 NphB prenyltransferase assessed as formation of 5-(3,7-dimethylocta-2,6-dienyl)naphthalene-1,6-diol
[2] = test system: NphB prenyltransferase (Streptomyces sp. CL190); assay: Ratio of Kcat to Km of Streptomyces sp. CL190 NphB prenyltransferase assessed as formation of 4-(3,7-dimethylocta-2,6-dienyl)naphthalene-1,6-diol
[3] = test system: NphB prenyltransferase (Streptomyces sp. CL190); assay: Ratio of Kcat to Km of Streptomyces sp. CL190 NphB prenyltransferase assessed as formation of 2-(3,7-dimethylocta-2,6-dienyl)naphthalene-1,6-diol
[4] = biological target: T1, Prenyltransferase homolog (Streptomyces coelicolor A3) (UniProt Q9FBZ2); assay: Ratio of Kcat to Km of Streptomyces coelicolor A3(2) prenyltransferase assessed as formation of 6-(3,7-Dimethyl-octa-2,6-dienyl)-5,7-dihydroxy-2-(4-hydroxy-phenyl)-chroman-4-one
T1 sequence (whole entry): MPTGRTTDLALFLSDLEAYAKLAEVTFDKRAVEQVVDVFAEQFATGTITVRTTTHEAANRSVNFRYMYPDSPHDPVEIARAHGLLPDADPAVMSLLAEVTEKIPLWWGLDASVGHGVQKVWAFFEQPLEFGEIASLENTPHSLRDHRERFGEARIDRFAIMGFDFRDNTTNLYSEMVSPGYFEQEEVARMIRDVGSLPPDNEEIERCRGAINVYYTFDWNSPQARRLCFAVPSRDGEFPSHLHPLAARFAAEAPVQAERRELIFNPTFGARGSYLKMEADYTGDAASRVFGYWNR

[5] = biological target: T1, Prenyltransferase homolog (Streptomyces coelicolor A3); assay: Ratio of Kcat to Km of Streptomyces coelicolor A3(2) prenyltransferase assessed as formation of 7-(3,7-Dimethyl-octa-2,6-dienyloxy)-5-hydroxy-2-(4-hydroxy-phenyl)-chroman-4-one
[6] = biological target: NphB prenyltransferase (Streptomyces sp. CL190); assay: Activity for Streptomyces sp. CL190 NphB prenyltransferase assessed as formation of 4-(3,7-dimethylocta-2,6-dienyl)naphthalene-1,6-diol
[7] = biological target: NphB prenyltransferase (Streptomyces sp. CL190); assay: Activity for Streptomyces sp. CL190 NphB prenyltransferase assessed as formation of 7-(3,7-dimethylocta-2,6-dienyloxy)-3-(4-hydroxyphenyl)-2,3-dihydrochromen-4-one
[8] = biological target: NphB prenyltransferase (Streptomyces sp. CL190); assay: Activity for Streptomyces sp. CL190 prenyltransferase NphB assessed as formation of 5-(3,7-dimethylocta-2,6-dienyl)naphthalene-1,6-diol
[9] = biological target: NphB prenyltransferase (Streptomyces sp. CL190); assay: Activity for Streptomyces sp. CL190 prenyltransferase NphB assessed as formation of 7-(3,7-Dimethyl-octa-2,6-dienyloxy)-5-hydroxy-2-(4-hydroxy-phenyl)-chromen-4-one
[10] = biological target: NphB prenyltransferase (Streptomyces sp. CL190); assay: Activity for Streptomyces sp. CL190 NphB prenyltransferase assessed as formation of 4-(3,7-dimethylocta-2,6-dienyl)-5-pentylbenzene-1,3-diol
[11] = biological target: NphB prenyltransferase (Streptomyces sp. CL190); assay: Activity for Streptomyces sp. CL190 NphB prenyltransferase assessed as formation of 2-(3,7-dimethylocta-2,6-dienyl)-5-pentylbenzene-1,3-diol
[12] = biological target: NphB prenyltransferase (Streptomyces sp. CL190); assay: Activity for Streptomyces sp. CL190 NphB prenyltransferase assessed as formation of 5-(4-hydroxystyryl)-2-((E)-3,7-dimethylocta-2,6-dienyl)benzene-1,3-diol
[13] = biological target: NphB prenyltransferase (Streptomyces sp. CL190); assay: Activity for Streptomyces sp. CL190 prenyltransferase NphB assessed as formation of 2-(3,7-dimethylocta-2,6-dienyl)naphthalene-1,6-diol
[14] = substrate: O=C1C[C@@H](c2ccc(O)cc2)Oc2cc(O)cc(O)c21; assay: Activity for Streptomyces coelicolor A3(2) prenyltransferase assessed as formation of 6-(3,7-Dimethyl-octa-2,6-dienyl)-5,7-dihydroxy-2-(4-hydroxy-phenyl)-chroman-4-one
[15] = substrate: O=C1C[C@@H](c2ccc(O)cc2)Oc2cc(O)cc(O)c21; assay: Activity for Streptomyces coelicolor A3(2) prenyltransferase assessed as formation of 7-(3,7-Dimethyl-octa-2,6-dienyloxy)-5-hydroxy-2-(4-hydroxy-phenyl)-chroman-4-one
[16] = biological target: NphB prenyltransferase (Streptomyces sp. CL190); assay: Activity for Streptomyces sp. CL190 prenyltransferase NphB assessed as formation of 1-(3,7-dimethylocta-2,6-dienyl)naphthalene-2,7-diol
[17] = biological target: NphB prenyltransferase (Streptomyces sp. CL190); assay: Activity for Streptomyces sp. CL190 prenyltransferase NphB assessed as formation of 6-(3,7-Dimethyl-octa-2,6-dienyl)-5,7-dihydroxy-2-(4-hydroxy-phenyl)-chromen-4-one
[18] = biological target: NphB prenyltransferase (Streptomyces sp. CL190); assay: Activity for Streptomyces sp. CL190 prenyltransferase NphB assessed as formation of 7-(3,7-dimethylocta-2,6-dienyloxy)-5-hydroxy-3-(4-hydroxyphenyl)-2,3-dihydrochromen-4-one

## Oc1ccc2c(O)cccc2c1
[1]
  Ratio: 7.7
[2]
  Ratio: 0.3
[3]
  Ratio: 2.2

## O=C1C[C@@H](c2ccc(O)cc2)Oc2cc(O)cc(O)c21
[4]
  Ratio: 0.31
[5]
  Ratio: 1.4

B1: Prenyltransferase homolog (Streptomyces coelicolor A3), Q9FBZ2 (protein)
chain: T1 sequence (whole entry)
[6]
  Km: 1050 µM
  kcat: 0.00032 s⁻¹
[7]
  Km: 290 µM
  kcat: 0.00017 s⁻¹
[8]
  Km: 540 µM
  kcat: 0.0042 s⁻¹
[9]
  Km: 580 µM
  kcat: 0.00033 s⁻¹
[10]
  Km: 640 µM
  kcat: 4.3e-05 s⁻¹
[11]
  Km: 520 µM
  kcat: 2.7e-05 s⁻¹
[12]
  Km: 440 µM
  kcat: 5.3e-05 s⁻¹
[13]
  Km: 510 µM
  kcat: 0.0011 s⁻¹
[14]
  Km: 2100 µM
[15]
  Km: 1600 µM
[16]
  Km: 340 µM
  kcat: 0.00047 s⁻¹
[17]
  Km: 530 µM
  kcat: 0.0006 s⁻¹
[18]
  Km: 330 µM
  kcat: 0.00048 s⁻¹
